Laboratory results as given in the DeepSol protein solubility set.

Experiment: soluble on expression in E. coli; label from the status in PepcDB or PDB records

Soluble on expression in E. coli, soluble:
MDIKRYCPVTDSELPADHVYFKFRSEIEAAEAYLGLAISEGIKVRETREILDIIDTVYNSLSDPESKLNDFQEKRLNFTEEDWYDIKEKANNGNRWSLYMFLARSAVDSAVYWSYRMKETEEFKEIVKEEMISKLLKAGYVILRESLGEVRL
MEFFFFIDVYADRELVDYYIVTFKLDDLSSVELTGSQGKYYIRGIRDWEKFKEEAYDITLYELGDEVDRFKDIETALREAYRIAIGEAVRRGAKNIVPAIGFGNPPPEVVERVYPEELKFEKFPEDLDAFLDRIVKEVSLETTERSKDDDEIPF
MAPLFAVTLYEFKAERDDELDVSPGENLSICAHYDYEWFIAKPINRLGGPGLVPVSYVRIIDLMDPAKYASVDTYDREQVMKIIDEFKIPTVEQWKDQTRRYKESSIQIGNGHGQSQGLE
MKTWPAPTAPTPVRATVTVPGSKSQTNRALVLAALAAAQGRGASTISGALRSRDTELMLDALQTLGLRVDGVGSELTVSGRIEPGPGARVDCGLAGTVLRFVPPLAALGSVPVTFDGDQQARGRPIAPLLDALRELGVAVDGTGLPFRVRGNGSLAGGTVAIDASASSQFVSGLLLSAASFTDGLTVQHTGSSLPSAPHIAMTAAMLRQAGVDIDDSTPNRWQVRPGPVAARRWDIEPDLTNAVAFLSAAVVSGGTVRITGWPRVSVQPADHILAILRQLNAVVIHADSSLEVRGPTGYDGFDVDLRAVGELTPSVAALAALASPGSVSRLSGIAHLRGHETDRLAALSTEINRLGGTCRETPDGLVITATPLRPGIWRAYADHRMAMAGAIIGLRVAGVEVDDIAATTKTLPEFPRLWAEMVGPGQGWGYPQPRSGQRARRATGQGSGGKLAAALEHHHHH
PHSHPALTPEQKKELSDIAHRIVAPGKGILAADESTGSIAKRLQSIGTENTEENRRFYRQLLLTADDRVNPCIGGVILFHETLYQKADDGRPFPQVIKSKGGVVGIMVDKGVVPLAGTNGETTTQGLDGLSERCAQYKKDGADFAKWRCVLKIGEHTPSALAIMENANVLARYASICQQNGIVPIVEPEILPDGDHDLKRCQYVTEKVLAAVYKALSDHHIYLEGTLLKPNMVTPGHACTQKYSHEEIAMATVTALRRTVPPAVTGVTFLSGGQSEEEASINLNAINKCPLLKPWALTFSYGRALQASALKAWGGKKENLKAAQEEYVKRALANSLACQGKYTSSGQAGAAASESLFISNHAY
SEKKECPEKSSSSEEELPRRDSGSSRNIDASKLIRLQGSRKLLVDNSIRELQYTKTGIFFQAEACVTNDTVYRELPCVSETLCDISHFFQEDDETEAEPLLFRAVPECQLSGGDIPSVSEEQESSEGQDSGDICSEENQIVSSYASKVCFEIEEDYKNRQFLGPEGNVDVELIDKSTNRYSVWFPTAGWYLWSATGLGFLVRDEVTVTIAFGSWSQHLALDLQHHEQWLVGGPLFDVTAEPEEAVAEIHLPHSISLQAGEVDVSWFLVAHFKNEGMVLEHPARVEPFYAVLESPSFSLMGILLRIASGTRLSIPITSNTLIYYHPHPEDIKFHLYLVPSDALLTKAIDDEEDRFHGVRLQTSPPMEPLNFGSSYIVSNSANLKVMPKWISSL
SNQEKLQRTMIHFNNPEVQAFLAVNTFTITGHGETKQLTEMLRSVLNQLAAVSLTSLRRLAEALPKQSVDGKAPLATGEDDDDDEVPGIMENFDEASKNEAN
MASSSLVRIAVVGDIHGFWNLDEDRKALRVLQERKTKTKRCSNATRYMDFPSFKLSIVGGRPFSHGGDRLFRKNLLVQRYGVHDMEASAGSICRAAHGTPEDHVAIILAHNGPTGLGWQAEDICGKDWGAEGGDHGDPDLEQAIRQLKETTKLSIPLVVFGHMHKELQRGKGNRKMVVQDSDNQTVYVNGAIVPRVKEAKKRGAAESESGGTTRAFTLVEILDGKIKKIAEIWVHVNGSMAKIVEENTLFEDVT
MATRSCVSRGSAGSAAAGPVEAAIRAKLEQALSPEVLELRNESGGHAVPAGSETHFRVAVVSSRFEGMSPLQRHRLVHEALSEELAGPVHALAIQAKTPAQWRENPQLDISPPCLG
MAESRSPDRGAKEDKPRPRNISREESLQLEGYKHACHALLHAPSQAKLFDRVPIRRVLLMMMRFDGRLGFPGGFVDTRDISLEEGLKRELEEELGPALATVEVTEDDYRSSQVREHPQKCVTHFYIKELKLEEIERIEAEAVNAKDHGLEVMGLIRVPLYTLRDRVGGLPAFLCNNFIGNSKSQLLYALRSLKLLREDQIQEVLKASHRLQY
MITIDLHTHTSHSHGQATVQEMFEAGCARGLLVHGFSEHSPRPSGYDYPKDYRDKLTRSFPDYVEQVRTLAATYAPERTVLLGLEMDWLPGQEPFIDATIHRYDYDYVIGGIHFLGTWGFDYTPDDWQGFSPEQTADIYVRYFESLRRMAASGMFDIAAHPDIIKIFSAAAFHDWLATDKAKAVVRDALETMHTAGMAMEISSAGLRKPCKEIYPCPDIMRMAADIGLPVTFGSDAHCVNTIGWGFDTLADYARGFGYTRSVWMRRGERFERPFLEHHHHHH

Soluble on expression in E. coli, not soluble:
MKKVILFMAGILASMMLNAQSRWSVTPEAGLVVNKENEGTSVTLGFKAGAGVLYQLKEGVGKKPSFGLKSGVYILMQKGGYHPMSWGNISTGGGFSMDYEKTNVESTRYYLQLPVMAHWGFKLCDDVRLKLAVGPYVAVGIGGRTNAYVSSSKYNIDEETGVGQYEYRNDYYRFGTFKGKTVNEEFGFEASPRLDWGGTASVGIAVKRISFTVGYDLAWGKYNKEQNDLRIRNHMVSFTSGYSF
MKLTWIKCMSKTERISDIDEPRLFEENGVEAHIAAFVMPLLKPLGFRLVRVKLLGLNGLTLQIMVERPDGSMTVEDCETVSRTVSPLLDVQNVIERKYHLEISSPGIDRPLVRKSDFFHWQGHIAKIETKIILEGRRKFRGTLTNITQDGFTLNTDKAAYGESMYISIPFDDIIDAHLVLTDELIRDALKKNKDLSQQFISEDNQKLSKQERNYKN
MGHHHHHHSHMDDKKKKRSPKPCLAQPAQAPGTLRRVPVPTSHSGSLALGLPHLPSPKQRAKFKRVGKEKCRPVLAGGGSGSAGTPLQHSFLTEVTDVYEMEGGLLNLLNDFHSGRLQAFGKECSFEQLEHVREMQEKLARLHFSLDVCGEEEDDEEEEDGVTEGLPEEQKKTMADRNLDQLLSNLEDLSNSMYPFQGTRLCVCVPERSVSSSPALQEYSHTTNFPTSCSPVRFSHRLPKPRYRNLEFPQN
MGSDKIHHHHHHMFPPDKTLFLCLSALLLASCGTTSGKHRQPKPKQTVRQIQAVRISHIDRTQGSQELMLHSLGLIGTPYKWGGSSTATGFDCSGMIQFVYKNALNVKLPRTARDMAAASRKIPDSRLKAGDLVFFNTGGAHRYSHVGLYIGNGEFIHAPSSGKTIKTEKLSTPFYAKNYLGAHTFFTE
MGSDKIHHHHHHMKLGVFTVLYGNLSFTEMLDKVKGAGVQAVEIGTGGYPGDAHCPRQELLTSAEKRKRYQEELEQRGLLLGSFSCHGNPLSPDEAFRKESDQALRETIELAGKMNVPVVNCFSGTAGDHEGAKYPNWPVAPWPNEYRHILEWQWEEKLIPYWKEIGEWAETHGVKVALELHGGFLVHTPYTLLTLRKATSPAIGANLDPSHLWWQGIDPVAAIKILGREGAIHHFHAKDTFIDQEQVNMYGLTDMQPYTHIQTRAWNFRSVGCGHDLHEWTQMISALRTYGYDHVISIEHEDPLMSIDEGFETAVRNLKPLLIKEKPTEMWWA
MMASHSDGKNMAKRKKRTKRGRPRINGCIREPNGRISRTKMPLDPIDKLAIEMRAKRFCLTLQEAKNPLSGTYIGRLYLQGNINQDQYDAAQKYLEVRNDYLCAKTLPSAIYDKMPSSSDEAARKKWVEFATKQFLNMQEVIKETQHLYRQHNFYAALQYLVSEDQELPYLVPSLADSP
MNGAQWVVHALRAQGVKTVFGYPGGAIMPVYDALYDGGVEHLLCRHEQGAAMAAIGYARSTGKTGVCIATSGPGATNLITGLADALLDSVPVVAITGQVSAPFIGTDAFQEVDVLGLSLACTKHSFLVQSLEELPRIMAEAFEVANAGRPGPVLVDIPKDIQLASGELEPWFTTVANEATFPQADVEQARQMLEQAKKPMLYVGGGVGMAQAVPALRKFIAVTQMPVTCTLKGLGAVEADYPYYLGMLGMHGTKAANFAVQECDLLIAVGARFDDRVTGKLNTFAPNASVIHMDIDPAEMNKLRQAHVALQGDLNSLLPALQQPLKIDAWRQSCAELRAEHAWRYDHPGETIYAPLLLKQLSERKPADSVVTTDVGQHQMWSAQHMTYTRPENFITSSGLGTMGFGLPAAVGAQVARPNDTVICISGDGSFMMNVQELGTVKRKQLPLKIVLLDNQRLGMVRQWQQLFFQERYSETTLTDNPDFLMLASAFGIPGQHITRKDQVEAALDTMLASEGPYLLHVSIDELENVWPLVPPGASNSEMLEKLS
MKTPPINQKSLRETESWKLLESSIIYYEGNPIGTVAAQDPELAALNYDQCFLRDFVPSAFVFLMDGQTDIVRNFLIETLTLQSHEKEMDCFQPGAGLMPASFKVESDGSKEYLVADFGEKAIARVPPVDSCMWWILLLRAYEKATGDLTLAREPKFQAGIKLILDLCLAHRFSMYPTMLVPDGAFMIDRRMGVYEHPLEIQVLFYAALRAARELLLPDGDGEQYLNKVHGRLGALQYHIRNYYWVDLKRLREIYRYKGNEFGKEIANKFNIFSQSIPDWVIEWLPEKGGYLAGNLGPGRMDFRFFALGNLMAILAGLASEEESQRIMNLFAHRWEDLIGYMPVKICYPALQGLEWQIVTGCDPKNIPWSYHNGGNWPVLLWLFTAAALKTGKVELAHEAIAIAEGRLSNDKFPEYYDGNNGRLIGKEARIYQTWSIAGLLVAKQFLANPDHVEFISFPDTFIGPGCSLLEHHHHHH
MGHHHHHHSHTGKTTVAVNLAVFNHIDLFDLDVEEPNDRIFIKGEAEEWPAYRKVPEVRENCNACGVCKDVCQYSAIYVIDKAYPLPELCHSCGACIYLCPEKAMEEVDYQTGKIVRVKSDITLTYGEMRIGEASAVFLIKQVKELMGKNAIIDSPPGASCPMVESVSDADYVILVAEPTPFGLHDLKIAAEVVSDLGLKFGVVVNKHGLPFDGIERYCKEGGVEILGKIPFSKEIAEKYSRGELLHDMKDFFVQLYEG
MKYLSAKSKLNIDAQDGGFTTTLLSYCLENGILDAVVVVGDKNWKPVAYLATTPTELLKSTKSKYSISPNNKLLEYATENYDKVGLVGLPCHILGGLQFDLTLKVGLFCTKNFYYDTIKSIIKERFGVNIDEVAKMNITKGKFVVETLKKKGFAGTEKVVYEIPIKEIEKLCNLGCRVCTDFSAKYADVSVGSVGSEDGWNTVIVRNKMVEDIINEMAEKGLIEVKETVDIKAIEKLENIKKKNEEINKCSAYFAVCPALFLEHHHHHH
MGSDKIHHHHHHMLFSVVDDRSGVAYQEYHCVYGEDAETALRFLFNSMAPKADPSFPFQGRPKLIYLDNGPVAKRRVFQSVMRALGIEWQTHIPASKDGTRTTARSKGKVERPFRTVKEAHETLYHFHKPETEAQANEWLLRYLVRTYNQQTHRAEPLSRIEDWITHVPTEGIREMCSWDQFCRFAREPERRKVGPDARITTDGTAYELEPEMAGDYVVLLWGLFDDELHAEFDGERFGPHYPVSGPIPQHRYRAFKRSKADERSARIRSLADQLGLPIAALSGEDVRLEPGSADSTLPIQPFVFEPQESRIAAKLAIAEELAMPLAKLSMDDRAFIDQVLSETLATD
